Measurements taken from publication doi:10.1101/2025.06.05.658000.

Tests used:
[1] = biological target: HLA-DR (DRA1*01:01 / DRB1*11:04), soluble knob-into-hole Fc heterodimer (human); assay: ELISA
[2] = biological target: HLA-DR (DRA1*01:01 / DRB1*04:05), soluble knob-into-hole Fc heterodimer (human); assay: ELISA

“SARS-CoV-2 RBD peptide RBD447-461 of the BA.2.86 variant (from UniProt P0DTC2 447-461)” showed a fold decline of binding affinity compared to RBD WT [1] greater than 16 fold and a fold decline of binding affinity compared to RBD WT [2] greater than 16 fold.
With “SARS-CoV-2 RBD peptide RBD447-461 of the Omicron BA.5 variant (from UniProt P0DTC2 447-461)” the fold decline of binding affinity compared to RBD WT [1] was greater than 16 fold and the fold decline of binding affinity compared to RBD WT [2] was greater than 16 fold.
